Results taken from patent US9187525B2, “Methods of treating ophthalmic diseases using NPR-B agonists” (Shire Orphan Therapies GmbH, dated 2015).
Numbered stars: 1 amine (or outer) side, 2 acyl side, 3 side chain; on linkers, the order of the positions; unused ones are H or OH. Square brackets hold non-standard residues; d marks the D form. Primed or numbered codes have the meaning given here. Ends that are not written are not given here. * marks the point of attachment. 2857‑Ac = 2-((2S,3R,4R,5R)-2,3,4,5,6-pentahydroxyhexylamino)acetic acid, O=C(CN(C[C@H](O)[C@@H](O)[C@H](O)[C@H](O)CO)[*:1])[*:2]; Eao = rac-1-amino-2,3-dihydro-1H-indene-1-carboxylic acid, O=C(C1(N[*:1])CCc2ccccc21)[*:2]; abu(pip) = (R)-2-amino-4-(piperidin-1-yl)butanoic acid, O=C([C@@H](CCN1CCCCC1)N[*:1])[*:2]; Sni = (S)-nipecotic acid, O=C([C@H]1CCCN([*:1])C1)[*:2]; Egg = 2-Amino-3-piperidin-4-yl-propionic acid; Fhy = Amino-piperidin-3-yl-acetic acid; pT = C[C@@H](OP(=O)(O)O)[C@H](N)C(=O)O; Hyp = O=C(O)[C@@H]1C[C@@H](O)CN1; pS = N[C@@H](COP(=O)(O)O)C(=O)O; AR‑385‑017 = not defined here; AR‑385‑042 = not defined here; Aoc(2) = CCCCCC[C@H](N)C(=O)O; NMeL = CN[C@@H](CC(C)C)C(=O)O; AR‑385‑12 = not defined here; Aic = NC1(C(=O)O)Cc2ccccc2C1; orn(Me2) = not defined here; NHexGly = CCCCCCNCC(=O)O; Octanoyl = CCCCCCCC(=O)*; 2137 = not defined here; Sni″ = not defined here; dHgl = not defined here; Che = not defined here; Fbz = not defined here; Rni = not defined here; hse = not defined here; leu = not defined here; mpa = not defined here; opa = not defined here; ppa = not defined here; Occ = octanoic acid; Dha = C=C(N)C(=O)O

T1: natriuretic peptide receptor-B (human)
T1 chain: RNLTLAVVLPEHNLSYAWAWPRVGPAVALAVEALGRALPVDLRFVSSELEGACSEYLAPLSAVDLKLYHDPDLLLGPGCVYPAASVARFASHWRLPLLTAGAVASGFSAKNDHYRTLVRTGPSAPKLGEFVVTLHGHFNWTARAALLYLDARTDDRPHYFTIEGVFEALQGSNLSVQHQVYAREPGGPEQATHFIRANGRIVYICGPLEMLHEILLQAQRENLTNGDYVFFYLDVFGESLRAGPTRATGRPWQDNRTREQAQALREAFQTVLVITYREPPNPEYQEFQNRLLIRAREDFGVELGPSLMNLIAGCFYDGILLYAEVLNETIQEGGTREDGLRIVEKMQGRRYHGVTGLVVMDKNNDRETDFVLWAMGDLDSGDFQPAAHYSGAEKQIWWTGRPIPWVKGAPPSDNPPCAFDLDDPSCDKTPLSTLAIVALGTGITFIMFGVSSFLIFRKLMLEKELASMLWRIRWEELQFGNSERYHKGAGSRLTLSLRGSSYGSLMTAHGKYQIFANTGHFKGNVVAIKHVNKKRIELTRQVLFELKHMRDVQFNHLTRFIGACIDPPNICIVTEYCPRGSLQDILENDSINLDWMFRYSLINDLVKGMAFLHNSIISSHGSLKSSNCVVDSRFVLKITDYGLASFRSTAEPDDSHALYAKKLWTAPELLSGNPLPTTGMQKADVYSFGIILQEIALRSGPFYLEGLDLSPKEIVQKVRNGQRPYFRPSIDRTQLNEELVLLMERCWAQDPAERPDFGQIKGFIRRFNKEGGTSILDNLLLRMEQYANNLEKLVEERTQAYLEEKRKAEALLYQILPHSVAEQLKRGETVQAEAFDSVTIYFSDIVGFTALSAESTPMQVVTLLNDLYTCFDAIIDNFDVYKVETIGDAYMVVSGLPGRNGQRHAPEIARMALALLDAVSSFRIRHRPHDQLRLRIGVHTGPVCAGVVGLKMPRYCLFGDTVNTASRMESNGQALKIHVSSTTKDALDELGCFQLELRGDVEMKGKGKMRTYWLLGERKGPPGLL


Target: T1, natriuretic peptide receptor-B
Test: cell-based or functional assay

Row | Binder | EC50 group, cGMP in GTM-3 cells
1 | [Occ][Sni]F[AR‑385‑12]L[Hyp][NMeL]DRI-NH2 (reading uncertain; also: printed as Occ-Sni-Phe-(AR-385-12)-Leu-Hyp-Nml-Asp-Arg-Ile-NH2) [JAL-1877] | ≤ 1 µM
2 | [Occ][Sni]F[mpa]L[Hyp][NMeL]DRI-NH2 (reading uncertain; also: printed as Occ-Sni-Phe-mpa-Leu-Hyp-Nml-Asp-Arg-Ile-NH2) [JAL-1888] | ≤ 5 µM
3 | [Occ][Sni]F[Fhy]L[Hyp][NMeL]DRI-NH2 [JAL-1882] | ≤ 5 µM
4 | Octanoyl-[dA][dA]FGLKLDR[2137] (reading uncertain; also: printed as Occ-ala-ala-Phe-Gly-Leu-Lys-Leu-Asp-Arg-2137) [JAL-0748] | ≤ 15 µM
5 | [Occ][Sni]F[orn(Me2)]L[Hyp][NMeL]SR[Che] (reading uncertain; also: printed as Occ-Sni-Phe-orn(Me2)-Leu-Hyp-Nml-Ser-Arg-Che) [JAL-1894] | ≤ 5 µM
6 | [Occ][Sni]F[abu(pip)]L[Hyp][NMeL]DRI-NH2 [JAL-1879] | ≤ 5 µM
7 | [Occ][Sni]F[opa]L[Hyp][NMeL]DRI-NH2 (reading uncertain; also: printed as Occ-Sni-Phe-opa-Leu-Hyp-Nml-Asp-Arg-Ile-NH2) [JAL-1887] | ≤ 5 µM
8 | [Occ][Sni]F[Fbz]L[Hyp][NMeL]DRI-NH2 (reading uncertain; also: printed as Occ-Sni-Phe-Fbz-Leu-Hyp-Nml-Asp-Arg-Ile-NH2) [JAL-1881] | ≤ 5 µM
9 | [AR‑385‑042][leu]L[Hyp][NMeL]DRI-NH2 (reading uncertain; also: printed as (AR-385-042)-leu-Leu-Hyp-Nml-Asp-Arg-Ile-NH2) [JAL-1880] | ≤ 5 µM
10 | Octanoyl-[Sni]FHL[Hyp][NMeL]DRI-NH2 (not fully specified (some residues); printed as Occ-Sni-Phe-his-Leu-Hyp-Nml-Asp-Arg-Ile-NH2) [JAL-1884] | ≤ 5 µM
11 | [Occ][Sni]F[hse]L[Hyp][NMeL]DRI-NH2 (reading uncertain; also: printed as Occ-Sni-Phe-hse-Leu-Hyp-Nml-Asp-Arg-Ile-NH2) [JAL-1878] | ≤ 5 µM
12 | [Occ][Sni]F[ppa]L[Hyp][NMeL]DRI-NH2 (reading uncertain; also: printed as Occ-Sni-Phe-ppa-Leu-Hyp-Nml-Asp-Arg-Ile-NH2) [JAL-1889] | ≤ 5 µM
13 | [Occ][Rni]FGLKLDRI-NH2 (reading uncertain; also: printed as Occ-Rni-Phe-Gly-Leu-Lys-Leu-Asp-Arg-Ile-NH2) [JAL-0744] | ≤ 15 µM
14 | Octanoyl-[Sni]FTL[Hyp][NMeL]DRI-NH2 (not fully specified (some residues); printed as Occ-Sni-Phe-thr-Leu-Hyp-Nml-Asp-Arg-Ile-NH2) [JAL-1883] | ≤ 15 µM
15 | [Occ][Sni]F[metO2]L[Hyp][NMeL]DRI-NH2 [JAL-1885] | ≤ 5 µM
16 | [Occ][Sni]F[AR‑385‑017]L[Hyp][NMeL]DRI-NH2 (reading uncertain; also: printed as Occ-Sni-Phe-(AR-385-017)-Leu-Hyp-Nml-Asp-Arg-Ile-NH2) [JAL-1886] | ≤ 5 µM
17 | [Occ][Sni]F[Egg]L[Hyp][NMeL]DRI-NH2 [JAL-1890] | ≤ 1 µM
18 | [Occ][Sni″]FGLKLDRI-NH2 (reading uncertain; also: printed as Occ-Sni-Phe-Gly-Leu-Lys-Leu-Asp-Arg-Ile-NH2) [JAL-0743] | ≤ 5 µM
19 | [Occ][Sni]F[Eao]L[Hyp][NMeL]DRI-NH2 [JAL-1892] | ≤ 5 µM
20 | [Occ][Sni]F[Aic]L[Hyp][NMeL]DRI-NH2 [JAL-1893] | ≤ 5 µM

Results, then the binder that gave them:

Row | EC50 group, cGMP in GTM-3 cells | Binder
21 | ≤ 5 µM | H-[Aoc(2)][Sni]FLL[Hyp][NMeL]DRI-NH2 (not fully specified (residue 4); printed as H-Hgl-Sni-Phe-leu-Leu-Hyp-Nml-Asp-Arg-Ile-NH2) [JAL-1896]
22 | ≤ 15 µM | Octanoyl-[Sni]FLL[Hyp][NMeL][pS]RI-NH2 (not fully specified (some residues); printed as Occ-Sni-Phe-leu-Leu-Hyp-Nml-Pse-Arg-Ile-NH2) [JAL-1912]
23 | ≤ 1 µM | H-KP[Aoc(2)][Sni]FLL[Hyp][NMeL]DRI-NH2 (not fully specified (residue 6); printed as H-Lys-Pro-Hgl-Sni-Phe-leu-Leu-Hyp-Nml-Asp-Arg-Ile-NH2) [JAL-1900]
24 | ≤ 1 µM | [Occ][Sni]F[orn(Me2)]L[Hyp][NMeL]TR[Che] (reading uncertain; also: printed as Occ-Sni-Phe-orn(Me2)-Leu-Hyp-Nml-Thr-Arg-Che) [JAL-1895]
25 | ≤ 5 µM | [2857‑Ac][Aoc(2)][Sni]FLL[Hyp][NMeL]DRI-NH2 (not fully specified (residue 5); printed as (2857-Ac)-Hgl-Sni-Phe-leu-Leu-Hyp-Nml-Asp-Arg-Ile-NH2) [JAL-1901]
26 | ≤ 5 µM | [Occ][Sni]F[Dha]L[Hyp][NMeL]DRI-NH2 [JAL-1915_2]
27 | ≤ 5 µM | H-K[Aoc(2)][Sni]FLL[Hyp][NMeL]DRI-NH2 (not fully specified (residue 5); printed as H-Lys-Hgl-Sni-Phe-leu-Leu-Hyp-Nml-Asp-Arg-Ile-NH2) [JAL-1898]
28 | ≤ 5 µM | H-[dHgl][Sni]FLL[Hyp][NMeL]DRI-NH2 (not fully specified (residue 4); printed as H-hgl-Sni-Phe-leu-Leu-Hyp-Nml-Asp-Arg-Ile-NH2; reading uncertain) [JAL-1897]
29 | ≤ 5 µM | [NHexGly][Sni]FLL[Hyp][NMeL]DRI-NH2 (not fully specified (residue 4); printed as (1625-Ac)-Sni-Phe-leu-Leu-Hyp-Nml-Asp-Arg-Ile-NH2) [JAL-1907]
30 | ≤ 15 µM | [Occ][Sni]F[orn(Me2)]L[Hyp][NMeL][pT]RI-NH2 (reading uncertain; also: printed as Occ-Sni-Phe-orn(Me2)-Leu-Hyp-Nml-Pth-Arg-Ile-NH2) [JAL-1913]
31 | ≤ 5 µM | H-K[dHgl][Sni]FLL[Hyp][NMeL]DRI-NH2 (not fully specified (residue 5); printed as H-Lys-hgl-Sni-Phe-leu-Leu-Hyp-Nml-Asp-Arg-Ile-NH2; reading uncertain) [JAL-1899]
